Results from the DeepSol protein solubility set.

assay: soluble on expression in E. coli; label from the status in PepcDB or PDB records

Row | Sequence | soluble on expression in E. coli
1 | MSDDGAFERDTTSFRHWVGDDVPPAAGRYHLYVSYACPWAHRTLLVRALLGLEDAISVSVVDPVRYDQGWTFDPEKPGCTPDHVFGGTHLRDVYTEADPEYTGRVTVPVLYDTDADTIVNNESEEIMRMLDVAFDDHAARDVDLYPEGYRDEVDRLIEDIYDPINNGVYRAGFADSQRAYDNAVDDLFEALAHYDDVLAEQRYLAGDVLTEADVAMFTTLYRFDEVYHTHFKCNRKRISDYDNLWPYLRELCQLPGVADTLYMEHVKQHYYRSHGHLNPKRLVPTGPNPAFFAPHDRDQLEHHHHHH | soluble
2 | HEHNISVTGGTDKIQYYLSANYLGQDGELRIGDEYSNRYTASAKINAQLSKIVSVGFNTRFIRSDYVQPTHLNESFFAEIGRQCWPTKPLYDPNGILYDDHVLQMQNGGEKQERNTWLYQQLNITVEPIKGWRLIGDLSYRYNTQYSHWDYLTVHQTGVDGKTKGNTWNNDSQVHEGTYASDYFNVNLYTDYAKTFAKSHNMKVLFGFQAEQNNYKDIAAEKLGVIYPGKPTINTSTGMDSNNQKVAPNVAGGHNRWATAGFFGRLNYDYLEKYLLEVNLRYDGSSRFRSDSRWGFFPSASVGWNIAREKFFLPVSKVVNTFKVRASYGSLGNQNTSSLYPTYSTIGTGTGSWIIDGTLANIAWAPSLVSYNLSWEKIRTWNAGVDFGLFNNRLTGSFDYYIRKTDDMVGPSEKLPVVLGTAVPSSNNTNLKTFGWELELMWKDRLNNGLNYSARFTLADSRTKITRYSNPSGLIDGFYAGKYVGEIWGYETIGIAQSDQEMAEHIGRLINGGQSNLGQDWKAGDIMYKDLNEDGKIDAGSRTLQDHGDLKRIGNSTPRYNVGLELAADWKGFDIRMFWQGTLKRDYFQGSYYFWGANGRQGPWFSTALKGHDDYFRNDEASPLGTNLNSYYPRPLFNTDKNQQSQTKYLQDASYLRLKNLQIGYSLPHNIVQKMGMQHLRIFASGENLFTITSLIDFFDPESIEGGSWGHGNVYPLSRTFSFGLNVTF | not soluble
3 | QAMTKTLRTPEHVYLCQRLRQARLDAGLTQADLAERLDKPQSFVAKVETRERRLDVIEFAKWMAACEGLDVVSEIVATIAEGRAQA | soluble
4 | MGSDKIHHHHHHMLNTKDKQPILLIIFGQKMKEYDDLIRSTVERLSKRDRPVSILISKELNHVIHHYDAQFENLETLVGYINTHEDSLIYPLCLDKNHELFQEFLAWQSHYSRQYISDNLSEKSVQAIDNNQDFVQVDCLVMRDSLNNCLYVSDLEYIESNKTTGKSLAIVPSQTLSDAARQTIRDVAFDVCRKANIIGVCYFSFLIDLNSLDYHIISLSSGLSHQSILFETITTYPVLEIATKLTVGYTFSQLKHSYYPNTSAFLEPQLDYVATVSFSFEKVDYIFFARNIEQLFLNLLEASSHDHFPFLSDISEEDLMFALIQKKENRLAYLLEAFRRGFDLYDLSSVTKINPFYLDKCLHIVELYENLNKSQYNVDIYKEAKRYGFSDDYIASSWQISLIDMLEYRKKHSVAPVLKQVEQSSGVLTGHQIQYFRSYDWHSDYISSGCQKALIMVDKGYSLVKLNELIKQIKQTHLELLIVTNQPLLIEQLNDTSIIFDTIGIETILTIMGIEEVEEVYLLGESQADMFSKMKNFSISCQSI | not soluble
5 | MAHHHHHHMPVKRSNKVHKFHEGTGDDNMPVVSMFVVKDGDEPFTRIDVELFVNKVPKACDLFLQTCAFPTVGDKRNAKRGSYKGCRFVRLTKEALQVADGSGPRAVPLSELEAEIGRVNHGVGIASLCRSSTSFDESFFFCLTDNRLELDSLDKRHVAFGRVTGGLDALMGLRDALVPYVQEGCVIVGSPYAVSEVVPKAKQ | soluble
6 | MGSDKIHHHHHHSDLNSNIKDDPYSGGKAPLGIGLLAESPSPESAYPNDTVVFKAKGMLNWCDPQSGRYDFKFYISDEETKIVTATDTTITVKVPGNLSSGTAYIVLKEQVFYGPRLTVLGNIKIDQSYGFKGTSGPIYDCAEHYSKARVYYPVGDYMQAYYNENSSQSFSCISMVLTDGSVSGKWVTDFKLDPGQGAGIDLANPGVTDIECYLNSFTYFPSDHRVLLSGKFSEYGWDKLPVNNITIATNEVASYYKTVALPSKKNNTSINCKIPVFNGGTLEAPVRTFITSNEKVVAVGNITNYCRINTEKSYAESMVLDYSKVASVLRMSRTGELDDSYRRDAEGVIGQILDACMVESDGIVIVGTFSSFDGQSVKNIVKLNAEGTLDETFMKNIGTGANGSITKIRYNKNKKKILITGEFSEFNGIPAQSVVMLNDDGTRDEIFKIGKMEGGLANFACLLDNDNIVVSGAFTKYDGVTRRGFLILGRDGKALQQFNVPGIFQGELYKVIETRTSTNSNGLLLLGDFSRFDGNMVRNAIMIEVDYE | not soluble
7 | MGSDKIHHHHHHMADNFLSQDEVDALLKGVSGEVDDAPQEAVDTGGPRPYNLATQERIVRGRMPTLEIINERFARLLRIGLYNFLRRGVEISVGPVRVSKYSEFIRNLVVPTNLNLVQFKPLRGTALMIFNPDLVFLMVDNLFGGDGRFHTRVEGRDFTQTEHRIIQRILNIVFEAYGKSWEPVYPIEFEFIRSEMNTQFANIATPNEVVVAVTFAIELGQISGEMHFCMPYSMIEPIKDLLTSSLQAENLEVDKRWIRLMRQQIQLAEVEIVADLGTAEVSLRDIVNLKVGDVIPLDIPPTIEAKVDGVPVMECAYGKFNGQYTLRVEKLLSTSAVEPKTGEQHV | not soluble
8 | MKEKIPFYNEKEFNEMMKKTKKGTFSGWYIINPENNSVEFSGSFNRQFKLNKPIIPVNTEYVTRKEFNEYKDSNDQRLIKIETTLTAQGEQINKLTQTVEKQGEQIRELQVEQKAQGEQIKAQGETLKLILQTLQKMSDRLDKIDPPK | soluble
9 | HDGIERELTIAVNNIIPGDLLVAFIRDFERQFTSTTLTVDLEVYNGCWDALYSKRADLVYGAPHAVPSSEGIISEPVGQMEWDFVVSPLHPLAAKRHPLENSELRHYPAVCIRDTSVNFPPMQAWLLEGQKPIFVPDFATAIALIE | not soluble
10 | MYFIAGMFDGKEKVNREQPPMPTTDGVEYPRAASWAAGNCANVLNDDKGKQLFRVFLFQSLAEENLAFLEAMEKLKKMKISDEKVAYAKEILETYQGSINLSSSSMKSLRNAVASETLDMEEFAPAIKEVRRLLENDQFPRFRRSELYLEYLEELLPRSYAEKWAQSFEGLLGNHVGRHHFRIFLRSIHAEENLRFWEAVVEFRSSRHKANAMNNLGKVILSTYLAEGTTNEVFLPFGVRQVIERRIQDNQIDITLFDEAIKHVEQVLRNDPYVRFLQSSQYIDLLSKLK | not soluble
11 | MAHHHHHHMRLASPFSRAAWQLQETHNLSPLLRRRACAAPVAATSPSAFCTARRCLSQQASHWLNKLRYGADDAPTMGSWDSAYEDDAMDTRKLYCKALVHASGGSRLARDWIAGCAALTSPDPSLIYTALQHAATEADVEELREHILGRLLAQESPRRGGRSGGSCDNEVRTSFGMYEESEREVVVPGTGNVAVKRAVAPNCAGQSSIHERDGKDGASEATSPPITSEGIRDAEHYLLQRSREVRCFMYDAMTASLFHSNNDLRTVEAARRHTFWIGLTQFGLSFDELTALWRLVEAELLLKKEKIKVLGQPWGE | soluble
12 | MGSDKIHHHHHHMVGENMDIFVSDYEKQYKEILTGFDPTTFSETWVENQQWQLDFYVEKTRNNQDVFDLLNHESSVYLDGQEFVVKQLKRGAVGKIVYSEVTATHIYFTMQDDYQYNAISGSKSAKDCLTHIFAADKQGFSFELIDKNKVLENITQENFGNGNLLKLVQEVLEDYKLVMLADNKRLTFIPSEDYGEHTENEIRYNKHTNEVDFDIDTLSLRTQIKGYGKVDSNGNNYFPPVTFTSPESAKWGVRIQEPLSDERYTTSSSMLRRLKLELQDYPATTGNISLKLKYECGKGDYVMFVYEPLGLLYEVQIVAYKKYIFTNKPPELTLSNNKKTMVSIMVQLAKAIKRGAK | not soluble
13 | MSLGYIMDLRKELPNPHRPLIMCSAGIIIIDKKGRVLLQKRTDNNKWGLPGGSLELGESFEEAAIREAYEEVGLKVKSLSLFNVYSGKECYNKYPNGDEIYNASSIFISNDYEGEVILDGEESADAVFFKKVDIPSLEEVNPPDRIVIKDIIEKLNIEKYEGHHHHHH | not soluble
14 | MGSDKIHHHHHHAQTGASDGSRFGHGEDSIRCLKNISIYTEYVKTNNFKDAYTPWMSVFTEAPKAQVSTYTNGAKILRALIAGEKDAAKQKQYFNELMKVHDQRIQYLDDLNKLVKRDATKGSIIGMKAHDYFTMGGQDMNEAYNMFKEAIELEKENSDYFVLQEFMDAAARKMKSDEAYKEQFIQDYLFASGVADGALKAATKENDKKLLKVAKDNIDAFFINSGVATCDNLQAIYAPKVEQNKTNLDYLKQVISVMQMLNCTEQEAYFAASEAAHAIEPTAETAVGCGYMYYKKGDMDKCIDYFDQAINLEQDPLKKADYAYKTAAILFSKKQLSKAKQYALKSISLDGNNGKPYILIANMYASSPNWSDEAALNKCTYFAVIDKLQKAKSVDPSVAEEANKLIGTYAAHTPKDADLFFLSLKKGDSVTIGGWIGETTTIR | not soluble
15 | MSLEDYCTPGAFELERLFWKGSPQYTHVNEVWPKLYIGDEATALDRYRLQKAGFTHVLNAAHGRWNVDTGPDYYRDMDIQYHGVEADDLPTFDLSVFFYPAAAFIDRALSDDHSRKRDVRVRNLCRKAGPLGLLVAEGKGKILVHCVMGRSRSATLVLAYLMIHKDMTLVDAIQQVAKNRCVLPNRGFLKQLRELDKQLVQQRRRSEGHHHHHH | soluble
16 | GPGSMEVNATLIDCCDPQKPSRVLFHFLILDAPSPSNLPTYIKELQHRGVRHLVRVCGPTYDATLVKSRGIDVHSWPFDDGAPPTRAVLDSWLKLLDTELARQQEDPSVPPPTIGVHCVAGLGRAPILVALALVEYGNVSALDAIALIREKRKGAINQTQMHWITKYKRRHQGAGCVIM | soluble
17 | MSLKTTLPISLDWSTEEVIDVVHFFQAIEQAYDQGIAREDLLGKYRRFKEIVPSKSEEKQLFRAYEQENDVSCYQTIKKAREEMEEHIQMEGHHHHHH | soluble
18 | MRLCGLLIFLSYIVYVDNAVTANFISDPRSMFPKMVRTKNAFHFLQYFMGTFRRMFRNKTEMIEHFNYYDDQVKGTDCHIQEELDFARFKSYFDRYTRTHYNPEIRIIFAIMTKDSSHMTVEFHVTSQSWFGFEDHFHMIIRAVNDENVGWGVRYLSMAFNC | not soluble
19 | GLGGEPVIVYADRGRSVIAAVEGRVEDLVRGDMIVVQADSNGEEVVYIASSPTEPPEVYRFKGGDVERVSSINRWVVEEFRLYKPRRVEVEAEGEVVEGWYIEPEGEGRKPLILFIHGGPKGMYGYGFYGEMQLFASEGFTVAYANPRGSDGYEEEFADIRGRYGDTDYKQLMKFLDAVVEGSDVDEGKMAVTGISYGGYMTNVIVTKTSRFRAAVSENGIADWIADFWAADIGYWFDPDQIGGTPLDNLEEYVKRSPAFHAKNVNTPVMLIHSMEDYRCFIDQALAMHTALKVNGKESFLVVFTKGSHGHSILASPRHRRKRLELKLKWIKEKLG | not soluble
20 | MKFGIVARRDKEEALKLAYRVYDFLKVHGYEVVVDKETYEHFPHFKEGDVIPLDEFDVDFIVAIGGDGTILRIEHMTKKDIPILSINMGTLGFLTEVEPSDTFFALNRLIEGEYYIDERIKVRTYIDGENRVPDALNEVAILTGIPGKIIHMKYYVDGGLADEVRADGLVVSTPTGSTGYAMSAGGPFIDPRLDVILIAPLLPLPKTSVPMVIPGSSRIDIRMLTDREIILAIDGQYYEHLPPNVEITVVKSPRKTKFIRFTREIYPKYTIRIKERHMAGDPLEHHHHHH | not soluble
21 | QTGGSFYEPFNNYNTGLWQKADGYSNGNMFNCTWRANNVSMTSLGEMRLSLTSPSYNKFDCGENRSVQTYGYGLYEVNMKPAKNVGIVSSFFTYTGPTDGTPWDEIDIEFLGKDTTKVQFNYYTNGVGNHEKIVNLGFDAANSYHTYAFDWQPNSIKWYVDGQLKHTATTQIPQTPGKIMMNLWNGAGVDEWLGSYNGVTPLYAHYNWVRYTKR | soluble
